Assay results: article PMC10030117 (eLife, 2023)

B1: Antibody 3A3, full-length (mouse variable region-human IgG1 constant region chimera) (antibody, V domains shown)
VH: QVQLQQSGAELLKPGASVKLSCTASGFNIKDTYIHWLKQRPEQGLEWIGRIGPAIGNTIYAPKFQGKATITTDTSSNTAYLQLSSLTSEDTAVYYCARYYGSSYYYFDYWGQGTTLTVSS
VL: DIVMTQSAPSVPVTPGESVSISCRSSKSLLHSNGNTYLYWFLQRPGQSPQLLIYRMSNLASGVPDRFSGSGSGTAFTLRISRVEAEDVGVYYCMQYLEYPLTFGAGTKLELK
B2: Antibody RAY53, full-length human IgG1 (antibody, V domains shown)
VH: QVQLVQSGAVVLKPGASVKLSCKASGFNIKNTYIHWLKQAPGQRLEWIGRIGPAIGNTIYAPKFQGKATITTDTSASTAYLELSSLRSEDTAVYYCARYYGSSYYYLDYWGQGTTVTVSS
VL: DIVMTQSPLSVPVTPGEPVSISCRSSKSLLHSNGNTYLYWFLQKPGQSPQLLIARMSTLASGVPDRFSGSGSGTAFTLKISRVEAEDVGVYYCMQYLEYPLTFGAGTKLEIK

Target: T1, HKU1 spike (2P-stabilized ectodomain with foldon) (HCoV-HKU1, isolate N5 (as in PDB 5I08), UniProt Q0ZME7, stabilised)
T1 construct: source: ExpiCHO or Freestyle 293F cells, purified
Assay: ELISA
Details: both partners purified

| Binder | binding result |
| --- | --- |
| B1 | binds |
| B2 | binds |
